The results in this text go back to patent US20250090676A1.

This assay has as its target human folate receptor alpha on cells (human) (UniProt P15328). The assay is described as follows: cell-based or functional assay.

Chain of human folate receptor alpha on cells (human) (P15328 25-234 limits assumed): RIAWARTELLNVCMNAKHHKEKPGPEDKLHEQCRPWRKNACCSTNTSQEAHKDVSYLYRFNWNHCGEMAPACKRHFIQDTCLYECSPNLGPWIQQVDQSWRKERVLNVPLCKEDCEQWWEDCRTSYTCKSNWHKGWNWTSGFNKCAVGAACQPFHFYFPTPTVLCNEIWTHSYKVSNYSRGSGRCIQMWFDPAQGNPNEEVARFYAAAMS

“ADC Molecule 21 (Mov19-sulfo-SPDB-DM4) (antibody)”: the fold shift of cell killing EC50 on Igrov1 cells on addition of naked antibody came out at 3 fold.
